Assay results published in PMC10473253, “A novel salt- and organic solvent-tolerant phosphite dehydrogenase from Cyanothece sp. ATCC 51142” (Frontiers in Bioengineering and Biotechnology, 2023).

Experiments:
Test in all cases: purified protein
Assay type in all cases: biochemical, Crocosphaera subtropica
purified protein [1] = substrate: O=[PH](O)O; conditions: 1.0 mM NAD+ as co-substrate, 100 mM MOPS pH 7.3, 37°C
purified protein [2] = substrate: NC(=O)c1ccc[n+]([C@@H]2O[C@H](COP(=O)(O)OP(=O)(O)OC[C@H]3O[C@@H](n4cnc5c(N)ncnc54)[C@H](O)[C@@H]3O)[C@@H](O)[C@H]2O)c1; conditions: 1.0 mM phosphite, 100 mM MOPS pH 7.3, 37°C, text b35 prints kcat 2.24 ± 0.15
purified protein [3] = substrate: NC(=O)c1ccc[n+]([C@@H]2O[C@H](COP(=O)(O)OP(=O)(O)OC[C@H]3O[C@@H](n4cnc5c(N)ncnc54)[C@H](OP(=O)(O)O)[C@@H]3O)[C@@H](O)[C@H]2O)c1; conditions: 1.0 mM phosphite, 100 mM MOPS pH 7.3, 37°C

B1: Ct-PtxD (Crocosphaera subtropica ATCC 51142) (protein)
chain: MNQKPKVVITHWVHPEIIDYLTPHCELILNQTKETLTREEVINRSKDAQGLMVFMPDYIDVNFLEACPQLKVISGALRGYDNFDVEACTKRNIWFTIVPDLLAAPTAELTIGLLLILARRMVEGDRLIRSGNFQGWKPQLYSTGLLNKTLGIIGMGKLGKALTKRLMGFDMTLLYHDKITLTSQQERDWKITKTSLEELLTKSDYVVLMVPLVPDTYHLINENSLKMMKPNSFLINPCRGSIVDETAVATAIKSGHLAGYAADVFEMEDWAIANRPQSINQTLLTDINHTFFTPHLGSAVNEVRRDIALEAAKNIIEVLSENRPQGAVNGIV
notes: full-length, 332 residues; pET-21b(+) NdeI/XhoI, His-tagged, E. coli Rosetta2 (DE3) pLysS
For B1, the Km (purified protein [1]) was 168 ± 25 µM, the Km (purified protein [2]) was 9.07 ± 1.05 µM and the Km (purified protein [3]) was 122 ± 4 µM.
